Reference: article PMC5887453 (Nucleic Acids Research, 2018)
Positions count from the first letter of the chain named.

What was measured:
Assay in all cases: native gel or EMSA
[1] = biological target: T1, Pyrococcus horikoshii elongation factor 2 (PhoEF-2), wild type (Pyrococcus horikoshii, UniProt O59521 1-732)
T1 sequence (looked up): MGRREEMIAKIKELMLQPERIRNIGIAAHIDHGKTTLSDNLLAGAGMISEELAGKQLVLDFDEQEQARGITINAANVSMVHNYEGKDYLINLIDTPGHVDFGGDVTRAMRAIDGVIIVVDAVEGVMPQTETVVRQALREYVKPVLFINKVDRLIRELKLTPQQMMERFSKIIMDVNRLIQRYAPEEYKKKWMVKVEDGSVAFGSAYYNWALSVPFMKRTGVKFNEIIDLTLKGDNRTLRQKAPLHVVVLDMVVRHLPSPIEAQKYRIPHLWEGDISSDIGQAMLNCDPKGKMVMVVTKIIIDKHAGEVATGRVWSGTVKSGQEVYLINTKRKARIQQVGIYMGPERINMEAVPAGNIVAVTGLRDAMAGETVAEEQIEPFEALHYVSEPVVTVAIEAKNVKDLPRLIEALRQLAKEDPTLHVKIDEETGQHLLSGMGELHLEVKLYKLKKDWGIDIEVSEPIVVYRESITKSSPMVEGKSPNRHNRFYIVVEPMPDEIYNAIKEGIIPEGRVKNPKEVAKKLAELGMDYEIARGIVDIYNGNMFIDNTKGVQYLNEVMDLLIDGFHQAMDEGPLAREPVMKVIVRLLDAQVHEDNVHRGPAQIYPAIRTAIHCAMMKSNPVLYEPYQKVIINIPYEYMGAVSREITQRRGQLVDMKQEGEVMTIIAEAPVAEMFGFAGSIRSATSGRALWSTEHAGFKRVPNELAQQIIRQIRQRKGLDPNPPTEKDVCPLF

PhoEF-2 M219S = biological target: T2, PhoEF-2 M219S (Pyrococcus horikoshii, UniProt O59521 1-732, M219S)
T2 sequence (looked up): T1 sequence (looked up) with M216S

PhoEF-2 F205S = biological target: T3, PhoEF-2 F205S (Pyrococcus horikoshii, UniProt O59521 1-732, F205S)
T3 sequence (looked up): T1 sequence (looked up) with F202S

Measured: binding result

B1: Pyrococcus horikoshii ribosomal stalk protein P1 (natural protein, UniProt O57705 1-108, looked up)
chain: MEYVYAALLLHSVGKEINEENLKAVLQAAGVEPEEARIKALVAALEGVNIDEVIEKAAMPVAVAAAPAAAPAEAGGEEKKEEEKKEEEEKEEEVSEEEALAGLSALFG
modifications: in the SPR only: biotin on amino groups via a PEG linker (EZ-Link NHS-PEG4-Biotin)
binds: all assays above
